Assays:
frizzled-2 (rFzd-2) = target: T1, frizzled-2 (rFzd-2) (Rattus norvegicus, UniProt Q08464); test: Activity assay: luciferase reporter in HEK superTOPflash cells transfected with frizzled-2; type: cell-based; conditions: FIG. 3
T1 construct: expressed in transfected cells; host or cells: HEK293 superTOPflash (transient, Fugene6, pcDNA3.1/hygro)
Procedure: Human embryonic kidney (HEK) cells were used for screening. These cells have a luciferase construct stably transfected into the genome (see FIG. 2A), such that when the frizzled receptor is activated and β-catenin is increased, the luciferase is activated by transcription and light can be measured.
The peptides were tested by transfecting the frizzled-1 or the frizzled-2 receptor and addition of UM206(S-S) to the cell culture. For testing antagonistic activity, UM206 was added and the natural ligand Wnt3a was added, which is a natural stimulus for the canonical pathway.
Day 2: Transfection 12-Well Plates • heat Fugene6 and DNA 15 minutes at RT • 2 ml serum-free medium in tube • add 3 μl fugene • add 2 μg DNA • incubate 30 minutes at RT • wash with PBS • add 50 μl transfectiemix • add 1 ml antibiotica-free medium
Day 3: Add Conditioned Medium or UM206
Day 4: Luciferase Activity Measurements • remove medium • wash with PBS • add 500 μl ⅕ lysisbuffer • shake for 60 minutes • centrifuge in tube • 20 μl lysaat and 50 μl luciferase in new tube for measurement • vortex • measure
Three areas of high homology that contained two cysteines are underlined (UM207), (UM208) and (UM206). In FIGS. 9B through 9D, the inhibitory effect of these three peptides on Wnt3a-induced luciferase activity in HEK293-superTOPflash is shown. […]

Fzd-1 and -2 = test: Binding of rhodamine-labeled UM206 to frozen sections of mouse kidney and small intestine and its blocking; conditions: UM206-rhodamine 1.10^−8 M; UM207 1.10^−7 M, Wnt3a 1.10^−8 M
Procedure: Specificity of the binding site was confirmed by prior incubation of the tissue sections with UM207 (1.10^−7 M) or recombinant Wnt3a (1.10^−8 M).
One-half of the hearts of the mice was embedded in paraffin and cut in 4 μm sections. The paraffin sections were rehydrated and washed in PBS. One section was stained with AZAN, allowing an accurate determination of the infarct size. To visualize the myofibroblasts in the infarct area, the sections were incubated with an antibody directed against α-smooth muscle actin (Sigma-Aldrich), followed by incubation with the peroxidase-conjugated secondary antibody (Vector laboratories). Nuclei were visualized by hematoxylin. Photos were taken with a Leica (CTR500, 63×/0.85) camera and analyzed with the Quantimet program (QWin/QGo). An examiner blinded to the groups of the animals obtained all measurements. For the experiments with Rhodamine-labeled UM206, frozen sections (4 μm) of mouse kidney and small intestine were used.

canonical Wnt signaling = test: Activity assay (Example 1): TOPflash luciferase reporter in HEK (HEK293-superTOPflash) cells, receptor not specified; type: cell-based, human; conditions: no Fzd transfection

T1 sequence (Q08464 29-570): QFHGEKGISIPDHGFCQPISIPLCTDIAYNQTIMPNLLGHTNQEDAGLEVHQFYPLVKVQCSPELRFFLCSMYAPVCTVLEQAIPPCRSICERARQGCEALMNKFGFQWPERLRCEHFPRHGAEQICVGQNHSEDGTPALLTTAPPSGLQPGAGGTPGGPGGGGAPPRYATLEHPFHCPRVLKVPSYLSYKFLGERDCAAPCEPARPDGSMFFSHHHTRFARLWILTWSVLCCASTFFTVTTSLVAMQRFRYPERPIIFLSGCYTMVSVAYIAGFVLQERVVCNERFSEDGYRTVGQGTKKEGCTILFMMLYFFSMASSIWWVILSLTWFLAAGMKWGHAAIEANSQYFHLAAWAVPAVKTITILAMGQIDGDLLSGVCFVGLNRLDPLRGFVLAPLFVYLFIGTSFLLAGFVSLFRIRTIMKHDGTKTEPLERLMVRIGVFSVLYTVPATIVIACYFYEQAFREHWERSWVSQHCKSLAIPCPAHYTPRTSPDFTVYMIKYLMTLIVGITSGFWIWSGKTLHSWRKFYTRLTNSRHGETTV

concentration-dependent increase of the luciferase activity, in combination with frizzled-2 (frizzled-2 (rFzd-2)): twelve-fold
B1: Wnt3a: natural ligand of frizzled, natural stimulus for the canonical pathway; recombinant or conditioned medium (protein)
chain: SYPIWWSLAVGPQYSSLGSQPILCASIPGLVPKQLRFCRNYVEIMPSVAEGIKIGIQECQHQFRGRRWNCTTVHDSLAIFGPVLDKATRESAFVHAIASAGVAFAVTRSCAEGTAAICGCSSRHQGSPGKGWKWGGCSEDIEFGGMVSREFADARENRPDARSAMNRHNNEAGRQAIASHMHLKCKCHGLSGSCEVKTCWWSQPDFRAIGDFLKDKYDSASEMVVEKHRESRGWVETLRPRYTYFKVPTERDLVYYEASPNFCEPNPETGSFGTRDRTCNVSSHGIDGCDLLCCGRGHNARAERRREKCRCVFHWCCYVSCQECTRVYDVHTCK
blocking of UM206-rhodamine binding by prior incubation (Fzd-1 and -2): completely abolished the binding of UM206-rhodamine
increase of luciferase activity (canonical Wnt signaling): ~450 fold
